Measured values from patent publication US9994881B2, “Functionalized carboxylic acids and alcohols by reverse fatty acid oxidation in engineered microbes” (William Marsh Rice University, priority 2011, dated 2018).
Marks after values point to notes of the source that are not given here.

Columns and labels:
Assay type in all cases: biochemical
[1] = Butyryl-CoA dehydrogenase activity utilizing ferricenium ion
Description: Cells were lysed using Bacterial Protein Extraction Reagent (B-PER) (Thermo Scientific, Waltham, Mass.) as per the prescribed protocol in order to obtain the supernatant containing the active enzymes. FadE and YdiO were purified following previously established methods^45 using the same growth conditions mentioned above.
Cell pellets were resuspended in 40 mL of 50 mM potassium phosphate buffer pH 7.2 and broken by disruption EmulsiFlex-05 homogenizer (Avestin, Ottawa, ON). Disrupted cells were then spun for 90 min at 4° C. at 120,000×g in a Optima L-80XP Ultracentrifuge (Beckman-Coulter, Schaumburg, Ill.) to produce the supernatant used for assays.
(§1) For specific activity assays (reported in μmol substrate/mg protein/min) these supernatant fractions were utilized and protein concentration was established using the Bradford Reagent (Thermo Scientific, Waltham, Mass.) using BSA as the protein standard. Linearity was established for each reaction and the background non-enzymatic rate was subtracted to establish the activity.
For FadE and YdiO, Butyryl-CoA dehydrogenase activity was measured utilizing ferricenium ion^49. Reactions were performed in 50 mM potassium phosphate pH 7.2, 0.4 mM MgSO4, 200 μM ferrocenium hexafluorophosphate, and 200 μM Butyryl-CoA and monitored the formation of the reduced ferrocene ion at 300 nm (ε=4.3 mM^−1 cm^−1).

[2] = thioesterase activity (production of TNB at 412 nm); details: crude cell extract; 200 μM substrate; expressed from pCA24N
Source text: (§2) For AtoB and thioesterase characterization assays, the pCA24N-gene (-gfp) plasmids from the ASKA collection^44 were used. For expression of E. gracilis TER for kinetic characterization, the egTER gene was cloned into pTrcHis2A using the In-Fusion protocol (Clontech Laboratories, Inc., Mountain View, Calif.) following PCR amplification from the aforementioned codon-optimized egTER containing plasmid with the primer pair of F1pTH6hisEgter and R1pTH6hisEgter (Supplementary Table S3).
(§3) Cultures for enzymatic assays were grown overnight in 100 mL of LB media at 37° C. in 250 mL baffled flasks (Wheaton Industries, Inc., Millville, N.J.) in E. coli BL21 (DE3) cells induced with either 1 mM IPTG (pCA24N, pTrcHis2A) or 1 mM Arabinose (pUCBB-pBAD) at an OD600˜0.6, or expressed constitutively (pUCBB-ntH6). Reactions were monitored on either a Synergy HT plate reader (BioTek Instruments, Inc., Winooski, Vt.) at 25° C. (for reactions monitored at 300 nm or higher) or in a Biomate 5 Spectrophotometer (Thermo Scientific, Waltham, Mass.) for reactions at 263 nm.
as §1
(§4) Thioesterase activity was monitored by following the production of TNB at 412 nm ([…])^30. Reactions were carried out in the presence of 100 mM Tris pH 7.5, 200 mM KCl, […] DTNB and 200 μM of the ‘-CoA’ substrate in a volume of 200 μL at 25° C.

[3] = as above; details: crude cell extract; 200 μM substrate; expressed from pCA24N; remark: listed apart in the source
Source text: as §2, §3, §1
For kinetic characterization, an appropriate amount of enzyme was established by checking linear range near predicted KM values. Then, the rates were measured for a range of substrates in order to establish kcat and KM. In the cases of FadB for the crotonase reaction and FadA in the “forward” thiolase reaction coupled with HBD, substrate saturation could not be established, as such, the kcat/KM for the reaction was determined by dividing the linear slope of Velocity vs. [Substrate] by the amount of enzyme used in the assays. For reactions that could be saturated, Velocity vs. [Substrate] was fitted by the EnzKIN Matlab module (mathworks.com/matlabcentral/fileexchange/26653) to establish Vmax and KM.
as §4

[4] = β-hydroxybutyryl-CoA dehydrogenase assay (NADH dependent reduction of acetoacetyl-CoA)
Description: as §3, with “nm. […]” for “nm.”
(§5) For kinetic characterization, his-tagged proteins of AtoB, FadA, FadB, caHBD, egTER were purified from the B-PER supernatant fractions using Talon Metal Affinity Resin (Clontech Laboratories, Inc., Mountain View, Calif.) using gravity purification. […] Enzyme concentration was established by measuring the absorbance at […] and extinction coefficients predicted for each enzyme by the ProtParam program (web.expasy.org/protparam/).
(§6) For kinetic characterization, an appropriate amount of enzyme was established by checking linear range near predicted KM values. Then, the rates were measured for a range of substrates in order to establish kcat and KM. […]

[5] = crotonase activity (loss of crotonoyl-CoA at 263 nm); details: substrate Crotonyl-CoA; supernatant fraction; expressed from pUCBB-ntH6
Description: as §3, with “nm. […]” for “nm.”
as §5, §6

Row | Molecule | Specific activities of selected thioesterases on Decanyl-CoA [2] | Specific activities of selected thioesterases on Acetoacetyl-CoA [3] | Specific activities of selected thioesterases on Acetyl-CoA [3] | Specific activities of selected thioesterases on Butyryl-CoA [3] | Specific activities of selected thioesterases on Crotonyl-CoA [3] | Specific activities of selected thioesterases on RS-3-Hydroxybutyryl-CoA [3] | further results
1 | FadE: E. coli acyl-CoA dehydrogenase, a medium-long-chain fatty acyl-CoA dehydrogenase (protein, UniProt Q47146 1-814, looked up) Acyl-coenzyme A dehydrogenase: MMILSILATVVLLGALFYHRVSLFISSLILLAWTAALGVAGLWSAWVLVPLAIILVPFNFAPMRKSMISAPVFRGFRKVMPPMSRTEKEAIDAGTTWWEGDLFQGKPDWKKLHNYPQPRLTAEEQAFLDGPVEEACRMANDFQITHELADLPPELWAYLKEHRFFAMIIKKEYGGLEFSAYAQSRVLQKLSGVSGILAITVGVPNSLGPGELLQHYGTDEQKDHYLPRLARGQEIPCFALTSPEAGSDAGAIPDTGIVCMGEWQGQQVLGMRLTWNKRYITLAPIATVLGLAFKLSDPEKLLGGAEDLGITCALIPTTTPGVEIGRRHFPLNVPFQNGPTRGKDVFVPIDYIIGGPKMAGQGWRMLVECLSVGRGITLPSNSTGGVKSVALATGAYAHIRRQFKISIGKMEGIEEPLARIAGNAYVMDAAASLITYGIMLGEKPAVLSAIVKYHCTHRGQQSIIDAMDITGGKGIMLGQSNFLARAYQGAPIAITVEGANILTRSMMIFGQGAIRCHPYVLEEMEAAKNNDVNAFDKLLFKHIGHVGSNKVRSFWLGLTRGLTSSTPTGDATKRYYQHLNRLSANLALLSDVSMAVLGGSLKRRERISARLGDILSQLYLASAVLKRYDDEGRNEADLPLVHWGVQDALYQAEQAMDDLLQNFPNRVVAGLLNVVIFPTGRHYLAPSDKLDHKVAKILQVPNATRSRIGRGQYLTPSEHNPVGLLEEALVDVIAADPIHQRICKELGKNLPFTRLDELAHNALVKGLIDKDEAAILVKAEESRLRSINVDDFDPEELATKPVKLPEKVRKVEAA |  |  |  |  |  |  | activity upon purification ([1]; purified enzyme): no detectable activities; Specific Activity ([1]; substrate Butyryl-CoA, crude extract of cells, expressed from pCA24N): 0.008 ± 0.001^b μmol/mg/min
2 | TesB: E. coli thioesterase II (protein, UniProt P0AGG2 2-286, looked up) Acyl-CoA thioesterase 2: SQALKNLLTLLNLEKIEEGLFRGQSEDLGLRQVFGGQVVGQALYAAKETVPEERLVHSFHSYFLRPGDSKKPIIYDVETLRDGNSFSARRVAAIQNGKPIFYMTASFQAPEAGFEHQKTMPSAPAPDGLPSETQIAQSLAHLLPPVLKDKFICDRPLEVRPVEFHNPLKGHVAEPHRQVWIRANGSVPDDLRVHQYLLGYASDLNFLPVALQPHGIGFLEPGIQIATIDHSMWFHRPFNLNEWLLYSVESTSASSARGFVRGEFYTQDGVLVASTVQEGVMRNHN | 0.6 ± 0.1 μmol/mg protein/min | 0.056 ± 0.001 μmol/mg protein/min | 0.030 ± 0.001 μmol/mg protein/min | 0.101 ± 0.002 μmol/mg protein/min | 0.010 ± 0.001 μmol/mg protein/min | 0.032 ± 0.002 μmol/mg protein/min | 
3 | paaH: E. coli 3-hydroxyadipyl-CoA dehydrogenase that participates in the degradation of phenylacetate (protein, UniProt P76083 1-475, looked up) 3-hydroxyadipyl-CoA …: MMINVQTVAVIGSGTMGAGIAEVAASHGHQVLLYDISAEALTRAIDGIHARLNSRVTRGKLTAETCERTLKRLIPVTDIHALAAADLVIEAASERLEVKKALFAQLAEVCPPQTLLTTNTSSISITAIAAEIKNPERVAGLHFFNPAPVMKLVEVVSGLATAAEVVEQLCELTLSWGKQPVRCHSTPGFIVNRVARPYYSEAWRALEEQVAAPEVIDAALRDGAGFPMGPLELTDLIGQDVNFAVTCSVFNAFWQERRFLPSLVQQELVIGGRLGKKSGLGVYDWRAEREAVVGLEAVSDSFSPMKVEKKSDGVTEIDDVLLIETQGETAQALAIRLARPVVVIDKMAGKVVTIAAAAVNPDSATRKAIYYLQQQGKTVLQIADYPGMLIWRTVAMIINEALDALQKGVASEQDIDTAMRLGVNYPYGPLAWGAQLGWQRILRLLENLQHHYGEERYRPCSLLRQRALLESGYES |  |  |  |  |  |  | specific activity toward the reduction of acetoacetyl-CoA ([4]; purified enzyme, data not shown): moderate
4 | YbgC: E. coli Acyl-CoA thioesterase (protein, UniProt P0A8Z3 1-134, looked up) Acyl-CoA thioester hydrolase …: MNTTLFRWPVRVYYEDTDAGGVVYHASYVAFYERARTEMLRHHHFSQQALMAERVAFVVRKMTVEYYAPARLDDMLEIQTEITSMRGTSLVFTQRIVNAENTLLNEAEVLVVCVDPLKMKPRALPKSIVAEFKQ | 0.06 ± 0.02 μmol/mg protein/min | 0.065 ± 0.002 μmol/mg protein/min | 0.036 ± 0.002 μmol/mg protein/min | 0.045 ± 0.007 μmol/mg protein/min | 0.006 ± 0.001 μmol/mg protein/min | 0.016 ± 0.004 μmol/mg protein/min | 
5 | FadB: E. coli hydroxyacyl-CoA dehydrogenase and enoyl-CoA hydratase, part of fatty acid oxidation complex (protein, UniProt P21177 1-729, looked up) Fatty acid oxidation complex …: MLYKGDTLYLDWLEDGIAELVFDAPGSVNKLDTATVASLGEAIGVLEQQSDLKGLLLRSNKAAFIVGADITEFLSLFLVPEEQLSQWLHFANSVFNRLEDLPVPTIAAVNGYALGGGCECVLATDYRLATPDLRIGLPETKLGIMPGFGGSVRMPRMLGADSALEIIAAGKDVGADQALKIGLVDGVVKAEKLVEGAKAVLRQAINGDLDWKAKRQPKLEPLKLSKIEATMSFTIAKGMVAQTAGKHYPAPITAVKTIEAAARFGREEALNLENKSFVPLAHTNEARALVGIFLNDQYVKGKAKKLTKDVETPKQAAVLGAGIMGGGIAYQSAWKGVPVVMKDINDKSLTLGMTEAAKLLNKQLERGKIDGLKLAGVISTIHPTLDYAGFDRVDIVVEAVVENPKVKKAVLAETEQKVRQDTVLASNTSTIPISELANALERPENFCGMHFFNPVHRMPLVEIIRGEKSSDETIAKVVAWASKMGKTPIVVNDCPGFFVNRVLFPYFAGFSQLLRDGADFRKIDKVMEKQFGWPMGPAYLLDVVGIDTAHHAQAVMAAGFPQRMQKDYRDAIDALFDANRFGQKNGLGFWRYKEDSKGKPKKEEDAAVEDLLAEVSQPKRDFSEEEIIARMMIPMVNEVVRCLEEGIIATPAEADMALVYGLGFPPFHGGAFRWLDTLGSAKYLDMAQQYQHLGPLYEVPEGLRNKARHNEPYYPPVEPARPVGDLKTA |  |  |  |  |  |  | Specific Activity ([4]; substrate Acetoacetyl-CoA, supernatant fraction, expressed from pUCBB-ntH6): 0.185 ± 0.001^c μmol/mg/min; Specific Activity [5]: 0.051 ± 0.004^c μmol/mg/min
